Laboratory results reported in the supplement of paper PMC11246515.
± gives the standard deviation of the averaged measurements.

Test: total protein half-life in vivo (active degradation + dilution); higher = more stable protein
[1] = E. coli NCM3722 delta-clpP delta-lon delta-hslV, growth: N-lim chemostat, doubling time 6 h
[2] = E. coli NCM3722 delta-clpP, growth: N-lim chemostat, doubling time 6 h
[3] = E. coli NCM3722 delta-hslV, growth: N-lim chemostat, doubling time 6 h
[4] = E. coli NCM3722 delta-lon, growth: N-lim chemostat, doubling time 6 h
[5] = E. coli NCM3722 delta-smpB, growth: N-lim chemostat, doubling time 6 h
[6] = wild type E. coli NCM3722, growth: C-lim chemostat, doubling time 3 h
[7] = wild type E. coli NCM3722, growth: C-lim chemostat, doubling time 6 h
[8] = wild type E. coli NCM3722, growth: C-lim chemostat, doubling time 12 h
[9] = wild type E. coli NCM3722, growth: N-lim chemostat, doubling time 6 h
[10] = wild type E. coli NCM3722, growth: N-lim chemostat, doubling time 12 h
[11] = wild type E. coli NCM3722, growth: P-lim chemostat, doubling time 6 h
[12] = wild type E. coli NCM3722, growth: P-lim chemostat, doubling time 12 h

Sequence	total protein half-life in vivo [1] [h]	total protein half-life in vivo [2] [h]	total protein half-life in vivo [3] [h]	total protein half-life in vivo [4] [h]	total protein half-life in vivo [5] [h]	total protein half-life in vivo [6] [h]	total protein half-life in vivo [7] [h]	total protein half-life in vivo [8] [h]	total protein half-life in vivo [9] [h]	total protein half-life in vivo [10] [h]	total protein half-life in vivo [11] [h]	total protein half-life in vivo [12] [h]
MTVRVAINGFGRIGRNVVRALYESGRRAEITVVAINELADAAGMAHLLKYDTSHGRFAWEVRQERDQLFVGDDAIRVLHERSLQSLPWRELGVDVVLDCTGVYGSREHGEAHIAAGAKKVLFSHPGSNDLDATVVYGVNQDQLRAEHRIVSNASCTTNCIIPVIKLLDDAYGIESGTVTTIHSAMHDQQVIDAYHPDLRRTRAASQSIIPVDTKLAAGITRFFPQFNDRFEAIAVRVPTINVTAIDLSVTVKKPVKANEVNLLLQKAAQGAFHGIVDYTELPLVSVDFNHDPHSAIVDGTQTRVSGAHLIKTLVWCDNEWGFANRMLDTTLAMATVAFR [P0A9B6]	4.55 ± 0.44	5.54 ± 2.7	4.07 ± 1.2	4.77 ± 1.6	3.65 ± 0.18	2.85 ± 0.086	5.08 ± 0.25	8.49 ± 0.63	3.49 ± 0.19	5.94 ± 0.99	5.48 ± 0.15	10 ± 0.75
MVDKSQETTHFGFQTVAKEQKADMVAHVFHSVASKYDVMNDLMSFGIHRLWKRFTIDCSGVRRGQTVLDLAGGTGDLTAKFSRLVGETGKVVLADINESMLKMGREKLRNIGVIGNVEYVQANAEALPFPDNTFDCITISFGLRNVTDKDKALRSMYRVLKPGGRLLVLEFSKPIIEPLSKAYDAYSFHVLPRIGSLVANDADSYRYLAESIRMHPDQDTLKAMMQDAGFESVDYYNLTAGVVALHRGYKF [P0A887]	5.402 ± 0.0099	4.951 ± 0.013	4.18 ± 0.12	4.9 ± 0.36	4.19 ± 0.076	2.405 ± 0.0086	4.67 ± 0.086	7.96 ± 0.38	4.36 ± 0.36	8.27 ± 1.5	4.45 ± 0.31	8.773 ± 0.069
MVDQAQDTLRPNNRLSDMQATMEQTQAFENRVLERLNAGKTVRSFLITAVELLTEAVNLLVLQVFRKDDYAVKYAVEPLLDGDGPLGDLSVRLKLIYGLGVINRQEYEDAELLMALREELNHDGNEYAFTDDEILGPFGELHCVAALPPPPQFEPADSSLYAMQIQRYQQAVRSTMVLSLTELISKISLKKAFQK [P0AF10]	4.34 ± 0.54	–	–	4.01	3.44	2.48 ± 0.33	4.42 ± 0.24	12.5 ± 1.4	3.54	5.95 ± 0.25	4.55	12.2 ± 2
MVEDILAPGLRVVFCGINPGLSSAGTGFPFAHPANRFWKVIYQAGFTDRQLKPQEAQHLLDYRCGVTKLVDRPTVQANEVSKQELHAGGRKLIEKIEDYQPQALAILGKQAYEQGFSQRGAQWGKQTLTIGSTQIWVLPNPSGLSRVSLEKLVEAYRELDQALVVRGR [P0A9H1]	5.34 ± 0.42	5.22 ± 0.42	6.31 ± 1.5	5.677 ± 0.045	4.88 ± 0.35	3.1514 ± 0.00069	5.79 ± 0.27	12.1 ± 1.1	5.18 ± 0.47	8.94 ± 0.12	5.74 ± 0.3	11.7 ± 0.27
MVELKEPLATLWRGKDAFAEVKKLNGEVFRELETRRTLRFELSGKSYFLKWHKGTTLKEIIKNLLSLRMPVLGADREWHAIHRLSDVGVDTMKGIGFGEKGLNPLTRASFIITEDLTPTISLEDYCADWAVNPPDIRVKRMLIARVATMVRKMHTAGINHRDCYICHFLLHLPFTGREDELKISVIDLHRAQIRAKVPRRWRDKDLIGLYFSSMNIGLTQRDIWRFMKVYFGMPLRKILSLEQNLLNMASVKAERIKERTQRKGL	6.12 ± 0.57	6.03 ± 0.16	6.41 ± 0.56	5.58 ± 0.54	5.92 ± 0.2	3.02 ± 0.17	6.68 ± 0.36	11.5 ± 0.34	5.76 ± 0.48	11.4 ± 1.2	5.94 ± 0.41	12 ± 0.44
MVFRIASSPYTHNQRQTSRIMLLVLLAAVPGIAAQLWFFGWGTLVQILLASVSALLAEALVLKLRKQSVAATLKDNSALLTGLLLAVSIPPLAPWWMVVLGTVFAVIIAKQLYGGLGQNPFNPAMIGYVVLLISFPVQMTSWLPPHEIAVNIPGFIDAIQVIFSGHTASGGDMNTLRLGIDGISQATPLDTFKTSVRAGHSVEQIMQYPIYSGILAGAGWQWVNLAWLAGGVWLLWQKAIRWHIPLSFLVTLALCAMLGWLFSPETLAAPQIHLLSGATMLGAFFILTDPVTASTTNRGRLIFGALAGLLVWLIRSFGGYPDGVAFAVLLANITVPLIDYYTRPRVYGHRKG	7.06	–	–	–	–	> 4	–	13 ± 0.93	6.53	9.64	–	13 ± 1.1
MVINCAFIGFGKSTTRYHLPYVLNRKDSWHVAHIFRRHAKPEEQAPIYSHIHFTSDLDEVLNDPDVKLVVVCTHADSHFEYAKRALEAGKNVLVEKPFTPTLAQAKELFALAKSKGLTVTPYQNRRFDSCFLTAKKAIESGKLGEIVEVESHFDYYRPVAETKPGLPQDGAFYGLGVHTMDQIISLFGRPDHVAYDIRSLRNKANPDDTFEAQLFYGDLKAIVKTSHLVKIDYPKFIVHGKKGSFIKYGIDQQETSLKANIMPGEPGFAADDSVGVLEYVNDEGVTVREEMKPEMGDYGRVYDALYQTITHGAPNYVKESEVLTNLEILERGFEQASPSTVTLAK	5.85 ± 0.38	4.79 ± 0.2	5.38 ± 0.92	4.78 ± 0.095	4.91 ± 0.26	3.04 ± 0.12	5.58 ± 0.54	11.6 ± 0.32	4.75 ± 0.06	8.63 ± 0.17	5.842 ± 0.057	12.3 ± 1.1
MVISIRRSRHEEGEELVAIWCRSVDATHDFLSAEYRTELEDLVRSFLPEAPLWVAVNERDQPVGFMLLSGQHMDALFIDPDVRGCGVGRVLVEHALSMAPELTTNVNEQNEQAVGFYKKVGFKVTGRSEVDDLGKPYPLLNLAYVGA	3.78	–	–	–	–	–	–	–	–	–	–	–
MVKERKTELVEGFRHSVPYINTHRGKTFVIMLGGEAIEHENFSSIVNDIGLLHSLGIRLVVVYGARPQIDANLAAHHHEPLYHKNIRVTDAKTLELVKQAAGTLQLDITARLSMSLNNTPLQGAHINVVSGNFIIAQPLGVDDGVDYCHSGRIRRIDEDAIHRQLDSGAIVLMGPVAVSVTGESFNLTSEEIATQLAIKLKAEKMIGFCSSQGVTNDDGDIVSELFPNEAQARVEAQEEKGDYNSGTVRFLRGAVKACRSGVRRCHLISYQEDGALLQELFSRDGIGTQIVMESAEQIRRATINDIGGILELIRPLEQQGILVRRSREQLEMEIDKFTIIQRDNTTIACAALYPFPEEKIGEMACVAVHPDYRSSSRGEVLLERIAAQAKQSGLSKLFVLTTRSIHWFQERGFTPVDIDLLPESKKQLYNYQRKSKVLMADLG [P0A6C5]	4.95 ± 0.5	3.02 ± 0.23	2.23 ± 0.15	3.628 ± 0.028	1.13 ± 0.066	1.99 ± 0.036	3.29 ± 0.41	5.24 ± 0.21	2.59 ± 0.25	4.01 ± 0.54	4.56 ± 0.38	8.35 ± 0.32
